In PMC13065467, “Assembly and phosphoregulatory mechanisms of the budding yeast outer kinetochore KMN complex” (The Journal of Cell Biology, 2026):

Legend:
[1] = tested on: K^HB-RWDM^Dsn1Δ257_Δhead1; assay: ITC, Dsn1 peptide titrated into head 1-deleted complex; type: binding, S. cerevisiae; conditions: 25°C, 25 mM HEPES pH 7.5, 100 mM NaCl, 1 mM TCEP, syringe 0.3 mM, cell 0.025 mM, two experiments
[2] = tested on: K^HB-RWDM^Dsn1Δ257_Mis12-3A; assay: ITC, Dsn1 peptide titrated into Mis12-3A mutant complex; type: binding, S. cerevisiae; conditions: ratio of ITC KD values, Mis12-3A mutant complex versus K^HB-RWDM^Dsn1Δ257
Procedure: Dsn1^228–254 and Dsn1^228–254,S240E,S250E peptides were synthesized by Alta BioScience with N-terminal acetylation and C-terminal GSAW extension and amidation. The final sequence of Dsn1^228–254 was […], and Dsn1^228–254,S240E,S250E was […]. All protein complexes and peptides used in a given experiment were dialyzed for a minimum of 16 h and/or buffer-exchanged by size-exclusion chromatography into the same batch of ITC buffer (25 mM HEPES, pH 7.5, 100 mM NaCl, 1 mM TCEP). All experiments were performed using an Auto-iTC200 instrument (Malvern Instruments) at 25°C. In each experiment, 360 μl of protein complex was pipetted into the calorimeter cell. The protein complex loaded into the calorimeter cell contained Knl1c:Mis12c^Mtw1c with Knl1^Spc105_HB-RWD and Dsn1^Δ1–257 and either wild-type Mis12^Mtw1 (K^HB-RWDM ^Dsn1Δ257) or Mis12^Mtw1_E69A,E73A,E77A mutant (K^HB-RWDM ^Dsn1Δ257_Mis12-3A). Wild-type constructs of all other Knl1c and Mis12c^Mtw1c subunits were included. Titration of either the Dsn1^228–254 or Dsn1^228-254,S240E,S250E peptide into the cell was then performed by an initial injection of 0.5 μl, followed by 19 further injections of 2.0 μl each. […] Titrations were performed in duplicate or triplicate, and reported KD and n values were calculated as an average from all replicate results.

[3] = molecular target: Knl1c:Mis12c^Mtw1c complex K^HB-RWDM^Dsn1Δ257_Mis12-3A (K^HB-RWDM^Dsn1Δ257 containing mutant … (S. cerevisiae, UniProt P53148 445-917)); Q04431 1-385; P40568 258-576; P39731 1-289; P47149 1-201; …, E69A | E73A | E77A (construct name; the text of the results says Asp77)); assay: ITC
[4] = molecular target: T1, Knl1c:Mis12c^Mtw1c complex K^HB-RWDM^Dsn1Δ257 (Knl1^Spc105 residues 1–444 and Dsn1 residues 1–257 deleted) (S. cerevisiae, UniProt P53148 445-917; Q04431 1-385; P40568 258-576; P39731 1-289; P47149 1-201; …); assay: SEC; 4 μM Knl1c:Mis12c^Mtw1c complex mixed with 4 μM CENP-C^Mif2_1-63 or CENP-QU in KMN buffer, 30 min on ice; Superose 6 3.2/300 in 20 mM HEPES pH 7.5, 150 mM NaCl, 1 mM TCEP; fractions on SDS-PAGE; conditions: both partners purified
T1 construct: Knl1^Spc105_HB-RWD: Knl1^Spc105, S. cerevisiae S288c, residues 445-917; ZWINT^Kre28, S. cerevisiae S288c; no truncation stated; Mis12^Mtw1, S. cerevisiae S288c; wild-type, no truncation stated; Nnf1, S. cerevisiae S288c; Nsl1, S. cerevisiae S288c; source: High-5 insect cells (two baculoviruses), purified (Strep-Tactin, SEC); copies: + + + + +

[5] = molecular target: T2, Knl1c:Mis12c^Mtw1c complex K^HB-RWDM^2E (full-length Dsn1 with S240E and S250E phosphomimetic mutations) (S. cerevisiae, UniProt P53148 445-917; Q04431 1-385; P40568 1-576; P39731 1-289; P47149 1-201; Q12143 …, S240E | S250E); assay: as above; conditions: both partners purified
T2 construct: Knl1^Spc105_HB-RWD: Knl1^Spc105, S. cerevisiae S288c, residues 445-917; ZWINT^Kre28, S. cerevisiae S288c; no truncation stated; Dsn1^S240E,S250E: full-length Dsn1, S. cerevisiae S288c, with phosphomimetic mutations; Mis12^Mtw1, S. cerevisiae S288c; Nnf1, S. cerevisiae S288c; Nsl1, S. cerevisiae S288c; also called KM^2E; K^HB-RWDM^S240E,S250E; source: High-5 insect cells (baculovirus), purified …

[6] = molecular target: T3, Knl1c:Mis12c^Mtw1c complex K^HB-RWDM^Dsn1Δ226-2E (Dsn1 residues 1–226 deleted, with S240E and S250E … (S. cerevisiae, UniProt P53148 445-917; Q04431 1-385; P40568 227-576; P39731 1-289; P47149 1-201; …, S240E | S250E); assay: as above; conditions: both partners purified
T3 construct: Knl1^Spc105_HB-RWD: Knl1^Spc105, S. cerevisiae S288c, residues 445-917; ZWINT^Kre28, S. cerevisiae S288c; no truncation stated; Dsn1^Δ1–226,S240E,S250E: Dsn1, S. cerevisiae S288c, residues 1-226 deleted, phosphomimetic mutations; Mis12^Mtw1, S. cerevisiae S288c; Nnf1, S. cerevisiae S288c; Nsl1, S. cerevisiae S288c; also called K^HB-RWDM^Dsn1Δ226,S240E,S250E; source: High-5 insect cells …

K^HB-RWDM = assay: analytical SEC reconstitution with K^HB-RWDM; type: binding, S. cerevisiae; conditions: Superose 6 3.2/300, 4 μM each, 20 mM HEPES pH 7.5, 150 mM NaCl, 1 mM TCEP, 30 min on ice
Procedure: (§1) To test the effect of deleting or mutating regions of the Dsn1 N-terminal disordered domain on Mis12c^Mtw1c auto-inhibition, 4 μM concentrations of Knl1c:Mis12c^Mtw1c complexes containing Knl1^Spc105_HB-RWD and different Dsn1 constructs were mixed with 4 μM concentrations of either CENP-C^Mif2_1-63 or CENP-QU in KMN buffer. Knl1c:Mis12c^Mtw1c complexes used contained one of the following Dsn1 constructs: K^HB-RWDM, contained full-length and wild-type Dsn1; K^HB-RWDM^S240E,S250E, contained Dsn1^S240E,250E; K^HB-RWDM^Dsn1Δ226, contained Dsn1^Δ1–226; K^HB-RWDM^Dsn1Δ257, contained Dsn1^Δ1–257; K^HB-RWDM^Dsn1Δ226,S240E,S250E, contained Dsn1^Δ1–226,S240E,S250E. Protein mixtures were incubated together on ice for 30 min to attempt to reconstitute a protein complex. 100 μl of individual proteins or protein complexes or reconstitution mixtures was loaded onto a Superose 6 3.2/300 size-exclusion chromatography column (Cytiva) equilibrated in (20 mM HEPES, pH 7.5, 150 mM NaCl, 1 mM TCEP), and 100 μl eluate fractions were collected. Aliquots of each indicated eluate fraction were mixed 1:1 (volume/volume) with 2xLDS-PAGE loading buffer supplied by Thermo Fisher Scientific, supplemented with DTT, boiled for 3 min at 95°C, and analyzed by SDS-PAGE.

K^HB-RWDM^Dsn1Δ257 = assay: analytical SEC reconstitution with K^HB-RWDM^Dsn1Δ257; type: binding, S. cerevisiae; conditions: Superose 6 3.2/300, 4 μM each, pH 7.5, Dsn1 residues 1–257 deleted
Procedure: as §1

K^HB-RWDM^Dsn1Δ226 = assay: analytical SEC reconstitution with K^HB-RWDM^Dsn1Δ226; type: binding, S. cerevisiae; conditions: Superose 6 3.2/300, 4 μM each, pH 7.5, Dsn1 residues 1–226 deleted
Procedure: as §1

K^HB-RWDM^2E = assay: analytical SEC reconstitution with K^HB-RWDM^2E; type: binding, S. cerevisiae; conditions: Superose 6 3.2/300, 4 μM each, pH 7.5, full-length Dsn1 S240E,S250E
Procedure: as §1

K^HB-RWDM^Dsn1Δ226-2E = assay: analytical SEC reconstitution with K^HB-RWDM^Dsn1Δ226-2E; type: binding, S. cerevisiae; conditions: Superose 6 3.2/300, 4 μM each, pH 7.5, Dsn1 Δ1–226,S240E,S250E
Procedure: as §1

KM2E = assay: SPR, binding to KM2E (review history, removed from manuscript); set-up: species or system S. cerevisiae; conditions: data removed from manuscript, review history only

## Ac-PHYIQRTRERKKSIGSQRGRRLSMLASGSAW-NH2 [Dsn1^228-254]
[1]
  binding (ITC): did not bind
[2]
  increase of KD versus K^HB-RWDM^Dsn1Δ257: threefold

## Ac-PHYIQRTRERKKSIGSQRGRRLSMLASGSAW-NH2 [Dsn1^228–254 peptide]
[3]
  Kd: 4.06 µM

B1: CENP-C^Mif2 residues 1–63 (CENP-C^Mif2_1–63) (domain or fragment, S. cerevisiae, UniProt P35201 1-63, looked up)
chain: MDYMKLGLKSRKTGIDVKQDIPKDEYSMENIDDFFKDDETSLISMRRKSRRKSSLFLPSTLNG
notes: CENP-C^Mif2, S. cerevisiae S288c, residues 1-63; source: E. coli BL-21 CodonPlus-RIL, purified (HisTrap, Ulp1 cleavage, reverse IMAC, Resource S, SEC); not shown: 6xHis-SUMO, N-terminal, cleaved
[4]
  binding result: binds
[5]
  binding result: binds
[6]
  binding result: binds

B2: CENP-C^Mif2_1-63: recombinant N-terminal fragment of S. cerevisiae CENP-C^Mif2 comprising residues 1–63 (protein)
chain: MDYMKLGLKSRKTGIDVKQDIPKDEYSMENIDDFFKDDETSLISMRRKSRRKSSLFLPSTLNG
modifications: left off: 6xHis-SUMO, N-terminal, cleaved
K^HB-RWDM; full-length wild-type Dsn1
  binding by SEC: did not bind
K^HB-RWDM; full-length wild-type Dsn1, listed as CENP-C N-terminus (residues 1-63)
  binding by SEC: did not
K^HB-RWDM^Dsn1Δ257
  binding by SEC: did interact
K^HB-RWDM^Dsn1Δ226
  binding by SEC: did not bind
K^HB-RWDM^2E
  binding by SEC: sufficient to abolish Mis12c^Mtw1c auto-inhibition
K^HB-RWDM^2E; listed as CENP-C (residues 1-63)
  binding by SEC: bound KM2E
K^HB-RWDM^Dsn1Δ226-2E
  binding by SEC: sufficient to abolish Mis12c^Mtw1c auto-inhibition
KM2E
  Kd: 260 nM
